Experimental data: article PMC3561395
Several values for one entry are separate records, joined by “and”; a condition that tells them apart may be missing. Equal entries are not always repeated.

Target: cytochrome c 552 from Thermus thermophilus HB8 (Thermus thermophilus HB8) (UniProt P04164)
Sequence of UniProt P04164 (P04164 whole entry): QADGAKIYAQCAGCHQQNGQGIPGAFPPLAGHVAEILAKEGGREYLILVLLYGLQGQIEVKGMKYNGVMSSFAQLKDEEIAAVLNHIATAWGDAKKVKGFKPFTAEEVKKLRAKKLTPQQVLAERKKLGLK

Substance	forward rate constant kF of electron transfer with c 552, 4°C, ionic strength 12 mM [M⁻¹ s⁻¹]	reverse rate constant kR of electron transfer with c 552, 4°C, ionic strength 12 mM
recombinant cytochrome c 550 N-terminal domain (c 550[N]) (domain or fragment)	1e+08	–
recombinant cytochrome c 550 C-terminal domain (c 550[C]) (domain or fragment)	7e+07	7e+06 M⁻¹ s⁻¹ and 3e+06 M⁻¹ s⁻¹
